The target in this assay is non-muscle actin. In words: F-actin co-sedimentation, peptide fluorescence in pellet over total, hyperbolic fit.

No end group written: not given here. fluorescein = fluorescein tag at the N-terminus

B1: F-Lifeact (chemically synthesized 17aa Lifeact peptide tagged with fluorescein at its N-terminus) (peptide)
peptide: fluorescein-MGVADLIKKFESISKEE
notes: also called fluorescein conjugated Lifeact; F-Lifeact peptide
Broadly, the Kd is the concentration at which binding is half-saturated. Turning to B1, the Kd amounted to 5.4 µM.

The record behind these values is patent publication US8957029 (MAX PLANCK GESELLSCHAFT ZUR FORDERUNG DER WISSENSCHAFTEN E V, dated 2015).
